Experimental data taken from patent US20220242962A1 (APTEVO RESEARCH AND DEVELOPMENT, published 2022).
Positions count from the first letter of the chain named. Names and notes keep the numbering of the source. Values belong to the binder of their own block, whether it stands above or below them.

What was measured:
[1] = molecular target: T1, Human 4-1BB ECD-AFH (human); experiment: SPR, construct captured, monomeric ECD as analyte
T1 construct: entry includes the tags; also called FOB003; HUMAN CD137 ECD-AVI-FLAG-HIS
Experimental: (§1) Mouse anti-human IgG (GE, BR-1008-39) at 25 μg/ml in 10 mM sodium acetate pH 5.0 was immobilized at a density of ˜10,000 response units (RU) onto each flow cell of a CM5 research-grade sensor chip (GE) by standard amine coupling chemistry. Each binding protein at approximately 100 nM in HBS-EP+ with 0.2% BSA buffer was captured in a flow cell with the immobilized anti-human IgG at a flow rate of 10 μL/min for 20 seconds, leaving one flow cell surface unmodified as the reference. Using a single-cycle kinetics mode, five different concentrations of ECD were sequentially injected through each flow cell at 30 μL/min for 300 seconds followed by a 600 second dissociation period. Regeneration was achieved by injection of 3 M MgCl₂ at a flow rate of 30 μL/min for 30 seconds followed by HBS-EP+ with 0.2% BSA buffer stabilization for 1 min.
(§2) Sensorgrams obtained from kinetic SPR measurements were analyzed by the double subtraction method. The signal from the reference flow cell was subtracted from the analyte binding response obtained from flow cells with immobilized or captured ligands. Buffer reference responses were then averaged from multiple injections. The averaged buffer reference responses were then subtracted from analyte binding responses, and the final double-referenced data were analyzed with Biacore T200 Evaluation software (2.0, GE), globally fitting data to derive kinetic parameters. All sensorgrams were fitted using a simple one-to-one binding model.
(§3) Protein was produced by transient expression, purified by ProA chromatography and prep SEC.

[2] = molecular target: T2, Human OX40 ECD-AFH (human); experiment: SPR, construct captured, monomeric ECD as analyte
T2 construct: ECD'; entry includes the C-terminal tags; also called OXF003; Human OX40 ECD-avi-flag-his
T2 chain: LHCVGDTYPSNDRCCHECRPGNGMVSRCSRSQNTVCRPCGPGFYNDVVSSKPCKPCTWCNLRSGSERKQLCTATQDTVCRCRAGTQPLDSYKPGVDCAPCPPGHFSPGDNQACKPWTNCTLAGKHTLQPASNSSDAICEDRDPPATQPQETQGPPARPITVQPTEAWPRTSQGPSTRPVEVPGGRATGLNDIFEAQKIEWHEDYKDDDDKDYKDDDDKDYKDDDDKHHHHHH
Experimental: as §1, §2, §3

[3] = molecular target: T3, Full-length Human OX40 (human, UniProt P43489 29-277); experiment: flow cytometry, CHO cells expressing human OX40
T3 construct: also called OXF001; human OX40/CHO
T3 sequence: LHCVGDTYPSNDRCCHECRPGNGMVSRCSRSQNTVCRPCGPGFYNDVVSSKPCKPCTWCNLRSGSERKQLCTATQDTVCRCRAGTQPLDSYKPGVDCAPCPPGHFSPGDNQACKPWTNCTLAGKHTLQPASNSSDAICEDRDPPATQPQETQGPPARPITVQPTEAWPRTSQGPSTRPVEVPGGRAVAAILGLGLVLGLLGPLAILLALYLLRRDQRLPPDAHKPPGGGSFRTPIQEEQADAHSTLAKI
Experimental: (§4) FIGS. 12A-12D show the binding of anti-4-1BB x anti-OX40 constructs, with additional humanization in 4-1BB and altered orientations of binding domains, human (12A) or cynomolgus (12C) 4-1BB-expressing Jurkat cells or human (12B) or cynomolgus (12D) OX40-expressing CHOK1SV cells. Serial dilutions of ADAPTIR™ constructs were incubated with transfected cells and subsequently labelled with a fluorescently-conjugated goat-a-human Fc secondary antibody. […] (See Example 19.)
(§5) Binding studies were performed using the flow cytometry-based staining procedures described above.

[4] = molecular target: T4, Full-length Human 4-1BB (human, UniProt Q07011 24-255); experiment: flow cytometry, Jurkat cells expressing human 4-1BB
T4 construct: also called FOB005; CD137
Experimental: as §4, §5

[5] = molecular target: T5, Full-length Cyno 4-1BB (cynomolgus monkey, UniProt Q07011 24-255 (human entry)); experiment: flow cytometry on Jurkat cells transfected with cynomolgus 4-1BB, goat anti-human Fc secondary antibody, MFI (Mean)
T5 construct: on Jurkat or CHO cells; also called FOB006; cynomolgus 4-1BB
T5 chain: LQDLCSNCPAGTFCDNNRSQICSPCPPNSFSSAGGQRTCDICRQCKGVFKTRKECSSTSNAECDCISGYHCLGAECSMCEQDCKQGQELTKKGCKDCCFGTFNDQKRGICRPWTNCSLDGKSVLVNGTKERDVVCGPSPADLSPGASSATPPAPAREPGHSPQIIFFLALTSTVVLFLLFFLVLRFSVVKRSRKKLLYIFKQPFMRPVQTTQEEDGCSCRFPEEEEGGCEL
Experimental: as §4, §5

[6] = molecular target: T3, Full-length Human OX40; experiment: cell-based or functional assay
[7] = molecular target: T4, Full-length Human 4-1BB; experiment: cell-based or functional assay
[8] = molecular target: T6, Full-length Cyno OX40 (cynomolgus monkey, UniProt P43489 29-277 (human entry)); experiment: flow cytometry on CHOK1SV cells transfected with cynomolgus OX40, goat anti-human Fc secondary antibody, MFI (Mean)
T6 construct: on CHO-K1SV cells; also called OXF004; cynomolgus OX40
T6 chain: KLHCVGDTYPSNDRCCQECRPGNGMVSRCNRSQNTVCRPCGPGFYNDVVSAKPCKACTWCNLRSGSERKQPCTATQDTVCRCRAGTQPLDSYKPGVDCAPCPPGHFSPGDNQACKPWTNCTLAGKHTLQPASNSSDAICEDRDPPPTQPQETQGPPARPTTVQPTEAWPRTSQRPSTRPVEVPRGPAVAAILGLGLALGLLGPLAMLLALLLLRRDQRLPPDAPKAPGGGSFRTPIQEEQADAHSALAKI
Experimental: as §4, §5

[9] = molecular target: T7, Recombinant FcRn/b2M protein (human, UniProt P55899 24-297; P61769 21-119, limits assumed); experiment: SPR pH 6.0, FcRn/b2M immobilized, two-state reaction model
T7 construct: also called hFcRn/b2M; neonatal Fc receptor
Experimental: Recombinant FcRn/b2M protein was generated via transient transfection of HEK-293 cells with a bi-cistronic vector containing the genes for both FcRn and […]. The complex was purified using IMAC chromatography and subsequently buffer exchanged into IMAC elution buffer after verifying purity of the IMAC eluate by analytical SEC. hFcRn/b2M at 10 μg/ml in 10 mM sodium acetate (pH 4.5) was immobilized on a CM5 chip by direct amine coupling chemistry to a level of ˜600 RU. A reference flow cell was left blank.
Different concentrations of the Fc variant protein (5-80 nM by 2-fold dilutions in pH 6.0 running buffer) including running buffer as blank were injected in randomized order at 30 μL/min for 180 seconds followed by a 120 second dissociation period.
as §2, with “cell” for “cells”, “immobilized” for “immobilized or captured”, “was” for “responses were then averaged from multiple injections. The averaged buffer reference responses were then”, “two-state reaction model, as described in Weirong Wang et al, DrugMetab Dispos.: 39(9): 1469-77 (2011).” for “a simple one-to-one binding model.”

T1 sequence (chain, as listed by the source limits assumed): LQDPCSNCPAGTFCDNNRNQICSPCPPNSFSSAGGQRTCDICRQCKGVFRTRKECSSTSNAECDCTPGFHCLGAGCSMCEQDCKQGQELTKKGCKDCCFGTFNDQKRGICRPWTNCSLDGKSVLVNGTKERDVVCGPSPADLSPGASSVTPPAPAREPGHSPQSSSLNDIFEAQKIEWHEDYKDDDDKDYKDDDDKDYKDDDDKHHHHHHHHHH

Kd [1]: 19 nM | koff [1]: 0.0055 s⁻¹ | kon [1]: 290000 M⁻¹ s⁻¹ | Kd [2]: 0.4 nM | koff [2]: 0.00027 s⁻¹ | kon [2]: 710000 M⁻¹ s⁻¹ | EC50 [3]: 0.35 nM | max MFI [3]: 10500 MFI | EC50 [4]: 0.33 nM | max MFI [4]: 4940 MFI | EC50 (read off the curve) [5]: ~0.3 nM | OX40 Reporter Assay EC50 [6]: 0.01 nM | OX40 Reporter Assay Max induction [6]: 1.97e+06 | 4-1BB Reporter Assay EC50 [7]: 0.014 nM | 4-1BB Reporter Assay Max induction [7]: 6.58e+06 | EC50 (read off the curve) [8]: ~0.8 nM
B1: FXX01105 (bispecific antibody)
chain: EIVMTQSPATLSLSPGERATLSCRASQSVSSYLNWYQQKPGQAPRLLIYYASRRHTGIPARFSGSGSGTDFTLTISSLQPEDFAVYYCQQGYNLPYTFGQGTKVEIKGGGGSGGGGSGGGGSGGGGSEVQLVQSGAEVKKPGASVKVSCKASGYTFTSYWMNWVRQAPGQGLEWMGNIYPSGGSTNYAQKFQGRVTMTVDTSTSTVYMELSSLRSEDTAVYYCASFSDGYYAYAMDYWGQGTLVTVEPKSSDKTHTCPPCPAPPAAAPSVFLFPPKPKDTLMISRTPEVTCVVVDVSHEDPEVKFNWYVDGVEVHNAKTKPREEQYNSTYRVVSVLTVLHQDWLNGKEYKCAVSNKALPAPIEKTISKAKGQPREPQVYTLPPSRDELTKNQVSLTCLVKGFYPSDIAVEWESNGQPENNYKTTPPVLDSDGSFFLYSKLTVDKSRWQQGNVFSCSVMHEALHNHYTQKSLSLSPGGGGSPSSYVLTQPPSVSVAPGKTARITCGGNNIGSKSVNWFQQKPGQAPVLVVYDDSGRPSGIPERFSGSTSGNTATLTISRVEAGDEADYYCQVWDSSSDHVVFGGGTKLTVLGGGGSGGGGSGGGGSGGGGSQVQLVESGGGVVQPGRSLRLSCAASGFTLSYYGMHWVRQAPGKGLEWVAAISHDGSDKYYADSVKGRFTISRDNSKNTLYLQMNSLRAEDTAVYYCSNDQFDPWGQGTLVTVSSR
notes: ADAPTIR anti-4-1BB (LH) x anti-OX40 with Q17K; also called FX01105

Kd [9]: 22 nM
B2: K322A Fc (other)
chain: EPKSSDKTHTCPPCPAPEAAGAPSVFLFPPKPKDTLMISRTPEVTCVVVDVSHEDPEVKFNWYVDGVEVHNAKTKPREEQYNSTYRVVSVLTVLHQDWLNGKEYKCAVSNKALPAPIEKTISKAKGQPREPQVYTLPPSRDELTKNQVSLTCLVKGFYPSDIAVEWESNGQPENNYKTTPPVLDSDGSFFLYSKLTVDKSRWQQGNVFSCSVMHEALHNHYTQKSLSLSPG
notes: IgG1 Fc with L234A, L235A, G237A, K322A (EU); the listing labels the entry 'K332A'

Kd [9]: 33 nM
B3: Null2 Fc (other, human, UniProt P01857-1 99-329, looked up, name in EU numbering)
chain: B2 chain with S5C, E103A, K105A
notes: domain: Fc region
